Earlier results as cited in paper PMC3629029.

Target: calreticulin (Homo sapiens) (UniProt P27797)
Test: SPR

Sequence of UniProt P27797 (P27797 18-417): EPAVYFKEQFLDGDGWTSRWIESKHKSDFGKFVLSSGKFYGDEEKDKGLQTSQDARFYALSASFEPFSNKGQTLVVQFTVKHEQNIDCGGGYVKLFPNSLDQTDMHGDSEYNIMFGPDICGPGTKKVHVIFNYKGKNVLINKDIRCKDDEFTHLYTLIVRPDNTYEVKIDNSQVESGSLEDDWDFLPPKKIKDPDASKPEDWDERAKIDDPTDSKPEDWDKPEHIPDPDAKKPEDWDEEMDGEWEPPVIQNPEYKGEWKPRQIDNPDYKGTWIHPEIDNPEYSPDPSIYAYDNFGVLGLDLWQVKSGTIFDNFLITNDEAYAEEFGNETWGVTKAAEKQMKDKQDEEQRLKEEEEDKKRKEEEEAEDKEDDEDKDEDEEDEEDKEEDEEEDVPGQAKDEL

Kd: 16 µM
Substance: PDIR (from UniProt Q14554)
